Test results published in the domain aggregation screens of Martell et al. (2025).

Assay: soluble fraction after stress (log2 fold change); higher = more stays soluble; pooled small domains, quantitative proteomics
Conditions: stress: 75 degC
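Also: 20 min heating vs room temperature control held 20 min.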

| Sequence | soluble fraction (log2) |
| --- | --- |
| HMSFPLKRGSKGNRVTQLQNALVKKFGASILPKYGVDGMFGKEVEAALVRAKLPTSINESTYNSFV | 0.125 |
| HMSFVAYEEEKAIGMVRLIGDGGMSFYIKDFAVLPGHQGKGVGQMLLMELQQYLLEHKPADWAVSLE | -0.359 |
| HMSGAKLLAPVTGTLLRYTVAEGTKVSEGQTVIMLESMKMELEINAHKAGVIHFTAAAGAQVAEGDSLAEI | -0.945 |
| HMSGDKKLQMNLILEFAQQNESFRTKDIEELLQIRSSRARKLISDLVTEGRLEALGENRNRRYQLI | -1.05 |
| HMSGDYRALYSSLPPERASSVVDALNVAGIPYRIQDSTGAIMVPAEQIYDARIRLAGQGLGK | 0.104 |
| HMSGEPKNERQIEVPDVTKKSIREANNILTSEGLRLRIEGTGLAVSQKPAAGTMVEPDTIITVTFQAP | 0.441 |
| HMSGHEVMVQRITAIIAELYQYGFVSRKKMMDEFNISERTLYRDLNRLGDRIVPDGDGIYRLAPAYA | -1.55 |
| HMSGHIPGIKIKGVIFFDKGSSSNHIIATTENNSNLKLRVGETVQGAVLKSIHPNHVIFFHHNQLIEVGIG | -4.39 |
| HMSGKGEFDQLLRSGEYVQAFQRANANGNVTLRRQQLLNLARHQAASGVGSGAIESLSTIQRI | 0.00597 |
| HMSGKMTVPNVVGKTETEAKSALSAKGFTNVRTETVDSTEAAGTVVKQSLDADSVQDPKTEIVLSVSNG | 0.946 |
| HMSGKWKIRILWYIAEYEVQRFGELRRRLGDITQSTLTEQLRELEQDGFVSRYVYQEVPSKVEYSLTE | 0.197 |
| HMSGKWSILILHALEQGPKRFNVLHRELSGITQATLTKQLRQLEEDGIILRKAYPQIPPKVEYQLTEIG | -1.82 |
| HMSGNPLDTYYSKWSAEIKKGSPNAVISKEGDKYYVSIPGENRMAIIYENPHLIRMVNATRNIHVE | -0.092 |
| HMSGPSDRDLFDEALALLSGSGREPDYHEARIRLGTLVEQFPESKWAEGAKALLSMLDRVSALQV | 0.247 |
| HMSGPVITEERNIANALISGLANMKETPTREQVERKAQQIAELFGYTGDLRNIITEAMISVDT | -0.0406 |
| HMSGRPPTYTAEERSAVIAAALSRPADLGLPFASWTLDRLVAYLGEKGIGMKRSRMSEVLLAEGLKW | -2.02 |
| HMSGSGYAYVDKYGYSHVVKDYDTAKNYASDGNVYNYSGSHKGGYAYDADNYRVPLDLPGSKPYG | 0.191 |
| HMSGSIIQQAENLERQFGDTREAILGTLSDPKMSEEILETLMERYNKQHGTNWDKNTWAEEWAKANK | 0.682 |
| HMSGSILVQVSATDLNIRKGPGTNYGTTGKYTGKGTFTIVETRSGQGSNAGWGKLKSGAGWISLDYAKR | -1.54 |

| Sequence | soluble fraction (log2) |
| --- | --- |
| HMSGTESMIEGRGEARTAIDGEGKVFFQGEYWTAQSDQFIPQGAKVRIKKVEGLNLIVEEIK | 0.065 |
| HMSGTYIVTVQANTLDIYKSMTSNDTIGKANKGDVFQILEDMGGGYAKVSYNDVEGYISIKDGDTSIDEM | -0.389 |
| HMSGVIVPDIYNKTLAEAVASLEGEGFSTEKKEGYSDTVPKGNVMSQKPEAGTSAERGSTVTITISQGPQ | 0.0579 |
| HMSGWIATGTATSTGNDVRVRSTPDATVNNNILLTLNKGNRFEIDGQTQNGFYHIKVNDTIGWISGLYVKE | -0.976 |
| HMSGYFSDKKLNELFEQYLIMREKKGKPVVGYQLKILIDRLNQVAANTKEKIEVVSNAIAGDWNTFYPIKR | -2.07 |
| HMSHDTLVYRLAQMLVKLNQGEKLDPQQLAEEFGVNLRTIQRDLNVRFAYLQLEKTDGRYHLDPTFL | -1.46 |
| HMSHLTKKQEEVLLFIRDYYEEEGRSPSYSDIQHHFGLKSKSSVQDYIGYLKKAGFLQKSVGSRAIELV | -2.52 |
| HMSHQIIIVAVELDPSTERIVYYLSKNGISINVLFFKVFQHGDEQFLSRVWLIDPSETQTNAALA | -0.726 |
| HMSIESMVGRFGVVTKDVVANEMAGKVKVGREEFRATADIAVSSGTKVKVTHAEGITLTVVPE | 0.611 |
| HMSIGKEATPDDIVPNIRVYHATFGYGNVIKTDGVSHDKKAVVNFDSVGEKTLLLKFAKLILPY | -0.557 |
| HMSIGLEGFVGKLGISTSDLRPSGWGEFDAKKLFVVTEGEFVDRKEKIEILSVDGNRILVRKIS | -1.56 |
| HMSILPGVYRHYKGNHYQVFYLAKHSETLEDMVVYQALYGERGIWVRPASMWNETVDDQGKQVKRFTYI | -3.58 |
| HMSILYNAVKGTLVSSGALTADSWYKISSFGTASALPALKVGSIFKTPEGAGDAITLASGDSVYPLTLT | -1.28 |
| HMSINQTIEGKKQGYWIIYGNMRNLQEYLSNEVIEEGQFKNSRKEGVWRKYFPGGQMKSEITYINGRP | -0.266 |
| HMSINTIIAKNLNRLRNERNLSLGQLAELSGVSKVMLSQIEKGDSNPTVNTIWKIASGLNVPYTAILDQP | -0.798 |
| HMSIPVLKDGTYESWGNEKVYKVGDRVMVGSNGYVAKWWNQDETPEKAIINPNDSPWRPMTESEIMEVLK | -0.128 |
| HMSISEADAKKIALEKVPGATDSNLRIKTDYDDGIMKYEVKIVYNEMKYEFDIDAATGTILEWESESVY | -1.37 |
| HMSISSSEAARSAVASSGGTVLGVSKASHGGYKAWAVRIQRADGSVVTGYVDRASGTVYDWVVNQAA | -0.663 |
| HMSKEDDSLVVTFRRMLLEEVDLHELSRIDANQRRARLERVIAHLVSREGVILSASERNQLVRRVVDEAV | -2 |
